According to PMC6628566:

Molecular target: CX3CR1 (UniProt P49238)
Sequence of UniProt P49238 (P49238 whole entry): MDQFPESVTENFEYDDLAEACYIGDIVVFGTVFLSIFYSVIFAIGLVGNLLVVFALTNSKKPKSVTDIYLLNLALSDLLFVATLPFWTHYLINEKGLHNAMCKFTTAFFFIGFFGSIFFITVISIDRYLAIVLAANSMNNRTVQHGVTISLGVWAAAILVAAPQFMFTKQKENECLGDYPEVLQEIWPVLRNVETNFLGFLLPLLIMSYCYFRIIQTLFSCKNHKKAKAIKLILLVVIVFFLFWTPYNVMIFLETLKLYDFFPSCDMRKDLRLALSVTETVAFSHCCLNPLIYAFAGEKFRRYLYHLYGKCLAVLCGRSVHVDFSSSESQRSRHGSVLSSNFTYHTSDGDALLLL

fold decrease in receptor binding affinity against sFKN: 10 fold
Substance: chemokine domain-only peptide of fractalkine (ckFKN) (domain or fragment)
